# Tested on: six V600E BRAF melanoma cell lines
# Assay: Screening of recombinant RTK ligands for ability to confer resistance to BRAFi (PLX4720) or MEKi (PD184352) (Table 4)
# Type: cell-based, human
# Set-up: ability of recombinant RTK ligand to confer resistance / ability of recombinant RTK ligand to confer resistance (screening value): scale not given here
# In short: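 Six V600E BRAF melanoma lines treated with PLX4720 or PD184352 after addition of 22 recombinant RTK ligands, scored for drug resistance. Activation of selected RTKs confirmed by western blotting and high-throughput tyrosine kinase phosphorylation profiling.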
molecule,measurement,setting,value
"Ephrin-A4 (protein, UniProt P52798 26-170, looked up) Ephrin-A4: LRHVVYWNSSNPRLLRGDAVVELGLNDYLDIVCPHYEGPGPPEGPETFALYMVDWPGYESCQAEGPRAYKRWVCSLPFGHVQFSEKIQRFTPFSLGFEFLPGETYYYISVPTPESSGQCLRLQVSVCCKERKSESAHPVGSPGES",ability of recombinant RTK ligand to confer resistance,"A2058, PD184352 - 1 uM, ligand 1.6 ng/ml",1.00
same,ability of recombinant RTK ligand to confer resistance,"A2058, PD184352 - 1 uM, ligand 6.25 ng/ml",1.02
same,ability of recombinant RTK ligand to confer resistance,"A2058, PD184352 - 1 uM, ligand 25 ng/ml",0.99
same,ability of recombinant RTK ligand to confer resistance,"A2058, PD184352 - 1 uM, ligand 100 ng/ml",1.04
same,ability of recombinant RTK ligand to confer resistance,"A2058, PD184352 - 1 uM, ligand 400 ng/ml",1.07
same,ability of recombinant RTK ligand to confer resistance,"A2058, PLX4720 - 2 uM, ligand 1.6 ng/ml",0.97
same,ability of recombinant RTK ligand to confer resistance,"A2058, PLX4720 - 2 uM, ligand 6.25 ng/ml",0.99
same,ability of recombinant RTK ligand to confer resistance,"A2058, PLX4720 - 2 uM, ligand 25 ng/ml",0.96
same,ability of recombinant RTK ligand to confer resistance,"A2058, PLX4720 - 2 uM, ligand 100 ng/ml",0.99
same,ability of recombinant RTK ligand to confer resistance,"A2058, PLX4720 - 2 uM, ligand 400 ng/ml",0.98
same,ability of recombinant RTK ligand to confer resistance,"C32, PD184352 - 1 uM, ligand 1.6 ng/ml",1.02
same,ability of recombinant RTK ligand to confer resistance,"C32, PD184352 - 1 uM, ligand 6.25 ng/ml",1.02
same,ability of recombinant RTK ligand to confer resistance,"C32, PD184352 - 1 uM, ligand 25 ng/ml",0.98
same,ability of recombinant RTK ligand to confer resistance,"C32, PD184352 - 1 uM, ligand 100 ng/ml",1.04
same,ability of recombinant RTK ligand to confer resistance,"C32, PD184352 - 1 uM, ligand 400 ng/ml",0.90
same,ability of recombinant RTK ligand to confer resistance,"C32, PLX4720 - 2 uM, ligand 1.6 ng/ml",1.04
same,ability of recombinant RTK ligand to confer resistance,"C32, PLX4720 - 2 uM, ligand 6.25 ng/ml",1.01
same,ability of recombinant RTK ligand to confer resistance,"C32, PLX4720 - 2 uM, ligand 25 ng/ml",1.04
same,ability of recombinant RTK ligand to confer resistance,"C32, PLX4720 - 2 uM, ligand 100 ng/ml",1.10
same,ability of recombinant RTK ligand to confer resistance,"C32, PLX4720 - 2 uM, ligand 400 ng/ml",1.03
same,ability of recombinant RTK ligand to confer resistance,"Colo 829, PD184352 - 1 uM, ligand 1.6 ng/ml",1.08
same,ability of recombinant RTK ligand to confer resistance,"Colo 829, PD184352 - 1 uM, ligand 6.25 ng/ml",1.13
same,ability of recombinant RTK ligand to confer resistance,"Colo 829, PD184352 - 1 uM, ligand 25 ng/ml",1.01
same,ability of recombinant RTK ligand to confer resistance,"Colo 829, PD184352 - 1 uM, ligand 100 ng/ml",0.98
same,ability of recombinant RTK ligand to confer resistance,"Colo 829, PD184352 - 1 uM, ligand 400 ng/ml",0.96
same,ability of recombinant RTK ligand to confer resistance,"Colo 829, PLX4720 - 2 uM, ligand 1.6 ng/ml",1.06
same,ability of recombinant RTK ligand to confer resistance,"Colo 829, PLX4720 - 2 uM, ligand 6.25 ng/ml",1.19
same,ability of recombinant RTK ligand to confer resistance,"Colo 829, PLX4720 - 2 uM, ligand 25 ng/ml",1.00
same,ability of recombinant RTK ligand to confer resistance,"Colo 829, PLX4720 - 2 uM, ligand 100 ng/ml",0.99
same,ability of recombinant RTK ligand to confer resistance,"Colo 829, PLX4720 - 2 uM, ligand 400 ng/ml",0.90
same,ability of recombinant RTK ligand to confer resistance,"G-361, PD184352 - 1 uM, ligand 1.6 ng/ml",1.11
same,ability of recombinant RTK ligand to confer resistance,"G-361, PD184352 - 1 uM, ligand 6.25 ng/ml",1.09
same,ability of recombinant RTK ligand to confer resistance,"G-361, PD184352 - 1 uM, ligand 25 ng/ml",1.04
same,ability of recombinant RTK ligand to confer resistance,"G-361, PD184352 - 1 uM, ligand 100 ng/ml",0.98
same,ability of recombinant RTK ligand to confer resistance,"G-361, PD184352 - 1 uM, ligand 400 ng/ml",0.86
same,ability of recombinant RTK ligand to confer resistance,"G-361, PLX4720 - 2 uM, ligand 1.6 ng/ml",1.08
same,ability of recombinant RTK ligand to confer resistance,"G-361, PLX4720 - 2 uM, ligand 6.25 ng/ml",1.05
same,ability of recombinant RTK ligand to confer resistance,"G-361, PLX4720 - 2 uM, ligand 25 ng/ml",0.95
same,ability of recombinant RTK ligand to confer resistance,"G-361, PLX4720 - 2 uM, ligand 100 ng/ml",1.02
same,ability of recombinant RTK ligand to confer resistance,"G-361, PLX4720 - 2 uM, ligand 400 ng/ml",0.88
same,ability of recombinant RTK ligand to confer resistance,"SK-MEL-5, PD184352 - 1 uM, ligand 1.6 ng/ml",0.96
same,ability of recombinant RTK ligand to confer resistance,"SK-MEL-5, PD184352 - 1 uM, ligand 6.25 ng/ml",0.93
same,ability of recombinant RTK ligand to confer resistance,"SK-MEL-5, PD184352 - 1 uM, ligand 25 ng/ml",0.93
same,ability of recombinant RTK ligand to confer resistance,"SK-MEL-5, PD184352 - 1 uM, ligand 100 ng/ml",0.98
same,ability of recombinant RTK ligand to confer resistance,"SK-MEL-5, PD184352 - 1 uM, ligand 400 ng/ml",0.99
same,ability of recombinant RTK ligand to confer resistance,"SK-MEL-5, PLX4720 - 2 uM, ligand 1.6 ng/ml",0.91
same,ability of recombinant RTK ligand to confer resistance,"SK-MEL-5, PLX4720 - 2 uM, ligand 6.25 ng/ml",1.07
same,ability of recombinant RTK ligand to confer resistance,"SK-MEL-5, PLX4720 - 2 uM, ligand 25 ng/ml",0.99
same,ability of recombinant RTK ligand to confer resistance,"SK-MEL-5, PLX4720 - 2 uM, ligand 100 ng/ml",0.99
same,ability of recombinant RTK ligand to confer resistance,"SK-MEL-5, PLX4720 - 2 uM, ligand 400 ng/ml",0.93
same,ability of recombinant RTK ligand to confer resistance,"SK-MEL-28, PD184352 - 1 uM, ligand 1.6 ng/ml",0.98
same,ability of recombinant RTK ligand to confer resistance,"SK-MEL-28, PD184352 - 1 uM, ligand 6.25 ng/ml",0.88
same,ability of recombinant RTK ligand to confer resistance,"SK-MEL-28, PD184352 - 1 uM, ligand 25 ng/ml",0.99
same,ability of recombinant RTK ligand to confer resistance,"SK-MEL-28, PD184352 - 1 uM, ligand 100 ng/ml",1.07
same,ability of recombinant RTK ligand to confer resistance,"SK-MEL-28, PD184352 - 1 uM, ligand 400 ng/ml",0.90
same,ability of recombinant RTK ligand to confer resistance,"SK-MEL-28, PLX4720 - 2 uM, ligand 1.6 ng/ml",1.10
same,ability of recombinant RTK ligand to confer resistance,"SK-MEL-28, PLX4720 - 2 uM, ligand 6.25 ng/ml",0.84
same,ability of recombinant RTK ligand to confer resistance,"SK-MEL-28, PLX4720 - 2 uM, ligand 25 ng/ml",1.05
same,ability of recombinant RTK ligand to confer resistance,"SK-MEL-28, PLX4720 - 2 uM, ligand 100 ng/ml",1.10
same,ability of recombinant RTK ligand to confer resistance,"SK-MEL-28, PLX4720 - 2 uM, ligand 400 ng/ml",1.00

# — patent US20140348819A1, “Methods of Treating Cancer” (Dana-Farber Cancer Institute, Inc., priority 2011, published 2014)
